Consider 137 substances from the supplement of paper PMC12042874.

± gives the uncertainty stated by the source.

This data set can be described thus: amyloid nucleation score (Sup35N fusion, yeast selection) (log enrichment); library NNK2; higher = more nucleation; inactive = no reads after selection. A digest of the protocol:
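The nucleation score is the DiMSum log enrichment of output over input reads, centred on the mode score of non-aggregating sequences. Only sequences with 100 or more input reads were scored, using Illumina sequencing of input and output plasmid inserts. Psi-negative yeast expressing Sup35N fused to peptides of 20 random codons were induced 24 hours with 100 μM copper sulfate and grown 7 days at 30°C on medium lacking adenine and uracil.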
FEVYKANDIEIYYAVCEMGV had an amyloid nucleation score of -1.34 ± 0.26.
Turning to FEYLYYIDIYLWYCEGRVAK, the amyloid nucleation score is -0.661 ± 0.54.
In turn, FFCFFKIYFWMRAAGTSLNR had an amyloid nucleation score of -0.861 ± 1.
The value for FFCLIVLVANVTCCGRDEGP was 5.32 ± 0.055; that for FFEFKDNSSWFK was 3.3 ± 0.052; that for FFFMTKNFKIFTSALDVPSE was -1.14 ± 1.1.
The value for FFFNVSLHVRNFLEEVSVAS was “inactive”; that for FFFNYLSCLRNAVNWFNRGM was “inactive”.
Under FFGRGSHKAGYYSCTTSLTQ stands 1.07 ± 0.16; under FFLLAGVLDWAYGWYYIVWK, 0.147 ± 1.1.
FFMGGMRASNMDYATSWLK: the amyloid nucleation score was 4.3 ± 0.099.
Turning to FFTGFDLVPVSYI, the amyloid nucleation score result was “inactive”.
With FFVPYDSYTYHLILFLKQLV, the amyloid nucleation score was -0.535 ± 0.53.
In turn, FGDYPNSLKWLQE returned an amyloid nucleation score of -0.558 ± 0.63.
FGFYFLVSGLCRCDLPFHVL gave an amyloid nucleation score of -0.757 ± 0.76.
In turn, FGHNGRICKRLMEVPIFERA came in with an amyloid nucleation score of -0.655 ± 0.32.
The value for FGINSLYINKWSDRLRQCTR was -0.142 ± 0.79.
The value for FGIQGWLFSNSWFLILVFFL was “inactive”; that for FGMYPVVGCLDRLYWMRLYA was 0.539 ± 0.81; that for FGRRLQGRHINSNDQWGRQA was 0.339 ± 0.61.
Under FGRWHYLQRGFKRSGVHFNR stands “inactive”; under FGTYSI, 0.389 ± 0.74; under FGVHVRCSEDDMAFALDLD, 0.155 ± 0.28.
In the case of FGVIICAMSCQKD, the amyloid nucleation score came out at 7.501 ± 0.026.
Under FGVTHVSWIQERVTADGAER stands 0.998 ± 0.39; under FGYAVVQRYYKWWIAMNTQA, -0.04 ± 0.42; under FHMRFMMVFIRLKTRTKLIL, -0.797 ± 0.42.
Under FHSPLCSCQSSLKVEWGHSE stands “inactive”; under FIADIVYLMNFGEIWG, 4.68 ± 0.1.
For FIADLSDMW, the amyloid nucleation score was -0.916 ± 1.1.
The value for FIARDRLMTDRTRGKPSWEG was 0.231 ± 0.3.
Under FIERSSLEDNVSSALAISR stands 0.704 ± 0.47.
Under FIFKGNQWKVFVFL stands 2.83 ± 0.068; under FIFVVMVMVWFWTGLCLSYN, “inactive”.
Substance FILCMTSWDYLDDCRFLFEL had an amyloid nucleation score of 1.03 ± 0.25.
Under FINKIKVRLNLMSGSANRLL stands 4.57 ± 0.11; under FINLYRVGVVCFILNKVGYF, 3.71 ± 0.052; under FISMNLEVSN, -0.26 ± 1.
The value for FISSVIIGYSDPGVEGILLV was -0.922 ± 0.78; that for FIYLIMFCKMVQWTIAFFKA was -0.658 ± 0.64; that for FKIAGRI was “inactive”.
Take FKNAWFLATFNPTT: the amyloid nucleation score is -0.104 ± 0.23.
As for FKRSTCNLR, the amyloid nucleation score was -0.479 ± 0.29.
Under FKSTNLMAWIFGMYIVFLGF stands -0.08 ± 1.
The value for FLFMLLSPVSMARLDKVMMG was 0.313 ± 0.65; that for FLLDAPKLAEDEYPHGSDDN was “inactive”; that for FLLNIDTFSLMRSVTANTLV was -0.697 ± 0.48.
Consider FLMRDFGMWFLFSNLLYITL, for which the amyloid nucleation score is -0.628 ± 0.48.
Under FLMSTSLRSCICCVLLPSDN stands 8.908 ± 0.032; under FLNESGSFWCSGFLIWVMRM, -0.568 ± 0.76; under FLNFIFELSSWMDF, -1.6 ± 1.1.
The value for FLPCL was -0.739 ± 1; that for FLQLLDNFALLDLVG was -0.12 ± 0.79.
The value for FLSDATAYH was “inactive”; that for FLSRSQRCMIG was 0.313 ± 0.64; that for FLSSSGRFSIVYSLFYEWIP was -0.674 ± 0.76.
FLSVEENGLTDVTVMGWFV gave an amyloid nucleation score of 0.19 ± 1.1.
In the case of FLVIVTVNLMYESQRMGSPV, the amyloid nucleation score result was “inactive”.
The value for FLWHCYNFLKAGS was “inactive”; that for FLYLIMKGPLAVKYCIKSLG was -0.545 ± 0.76; that for FLYMQTMLCNSKVFQVSALC was “inactive”.
In the case of FLYQEPSSCVTTAKISGLMA, the amyloid nucleation score entry is “inactive”.
Under FLYTCF stands 0.509 ± 0.25; under FMECVSNNRMELVAGNEKGC, 0.082 ± 0.27; under FMFPGRRPFPIAMWELRFFS, -0.427 ± 1.1.
The value for FMGRMTLGHKNAWVSSDRH was -1.33 ± 0.79; that for FMGVKRVVTRVVCLQIGQPT was 7.11 ± 0.071.
FMQGPFNYTRMLSL gave an amyloid nucleation score of -0.808 ± 1.1.
The value for FMRWSRISRSGYNDDGSLVG was 3.52 ± 0.067; that for FMTLAGFSGAVEASGADWRR was -0.606 ± 0.63.
In turn, FMTVSDTMFHRIVASPQVPA returned an amyloid nucleation score of 0.87 ± 0.32.
The substance FMVILYLDSLSLPWNWIVFG came in with an amyloid nucleation score of 0.098 ± 0.54.
The value for FNALTVDQTVHSYGVYADLP was 0.191 ± 0.21.
For FNCEGLVNS, the amyloid nucleation score is -1.25 ± 0.64.
Under FNDHWARRRRDFVNIWFWSE stands -0.047 ± 1.1.
The value for FNDRKYESCDSDDC was -1.99 ± 0.62.
The value for FNISSNVICDNFRDPLVESD was -1.87 ± 0.78.
FNMVNTILMNGPSCWLQSVP yielded an amyloid nucleation score of 0.21 ± 0.63.
The value for FNRGKVMCVAYNGCSRYLMD was -1.64 ± 0.75; that for FNSSLWVFRIPNCCNRSAYC was “inactive”.
For the substance FNTCGSHRSGRRFL, the amyloid nucleation score result is “inactive”.
The value for FNVLIACWGYKDNFNVYSCE was 5.844 ± 0.035.
Under FNYDSLVSTRAYPFWTVTVF stands 1.52 ± 0.43.
The value for FQCNCTLSQIAWNKSQGQSS was -0.363 ± 1.1.
FRCIDFR: the amyloid nucleation score is 0.674 ± 0.65.
Under FREVRRF stands 0.631 ± 0.41; under FRFPFFVQWFFCLSGSQRAR, “inactive”; under FRIGHSHGYLLM, -0.805 ± 1.1.
Turning to FRIKAEVGPIYTYDTGSFNW, the amyloid nucleation score was -0.162 ± 0.27.
Substance FRIPRWFKTS returned an amyloid nucleation score of -0.284 ± 1.1.
The value for FRLPNVLRDGSA was 1.41 ± 0.41.
The value for FRLSHFILVSHYLNNYEDSF was “inactive”; that for FRMLNRFLWFKVKMGYMHYG was -0.618 ± 0.42; that for FRNFELSRTFVVYNPVLQCY was -0.473 ± 0.39.
The value for FRPHQVV was “inactive”; that for FRRRRIFYYITEHVLLCMLK was -0.5 ± 0.64.
Take FRRYYLLFVPAFCVPLKCQY: the amyloid nucleation score worked out at 0.53 ± 0.66.
The value for FRSKPAFRVMGVVCRGFYFL was -0.637 ± 1.1; that for FRTTALLRFKRWDYGVIRNR was 0.021 ± 0.46; that for FRVRRGLASGR was 1.28 ± 0.3.
Consider FRWYFNVAATCGNRAPGRNV, for which the amyloid nucleation score stood at 1.31 ± 0.18.
The value for FRYFDWCIFYSYLLVCY was -1.96 ± 1.1; that for FRYFSVP was -0.52 ± 0.36; that for FSCHWAIMTRSGKVEVCNNQ was 5.47 ± 0.069.
Under FSDIWPLRP stands 0.806 ± 0.15; under FSEWRIGKNMIFCDVIDVCE, 1.94 ± 0.089; under FSFEWMFWGWTCNQGTDVVS, -0.319 ± 0.54.
FSFIGFLNRNKSAALCKMDI had an amyloid nucleation score of -1.16 ± 0.76.
The value for FSFLHFVERLTGHLIYFSRF was “inactive”; that for FSFLKLIADPATLVIGTDSW was -0.492 ± 0.3; that for FSFVTFSGNRFDFLLLRPCT was “inactive”.
Take FSGFYLWSVDFVMLLGAWAH: the amyloid nucleation score result is “inactive”.
FSGIYESPMVLHMV returned an amyloid nucleation score of -1.97 ± 0.62.
The value for FSGLGDCEVMYVFVNNRLGW was -0.699 ± 1; that for FSIKPLGQKDIR was 5.47 ± 0.073; that for FSKHNSYGTNINNLFFSLLH was 6.19 ± 0.077.
The value for FSKIIHDSALVNISWMHDGS was 0.844 ± 0.56; that for FSLICIKIHEKGWQGEG was 4.17 ± 0.065.
Under FSLWSLERLKPIGLSSRMSG stands 3.45 ± 0.16; under FSLYN, -1.64 ± 0.75; under FSMLRVYHLRPDLRVFCCAF, -0.108 ± 1.1.
With FSMPLLALAFLL, the amyloid nucleation score result was “inactive”.
The value for FSMVT was 0.057 ± 0.63.
The value for FSRCTSVEV was -0.699 ± 1.
The value for FSRSYVPIMY was 0.759 ± 0.8; that for FSRTSPIRQMIWKFLDCQPA was -0.978 ± 0.41; that for FSSATDVCDGSRSIIRIAGA was -0.283 ± 1.
On to FSSSFVVWALYPVTFHLTRS, for which the amyloid nucleation score is 0.112 ± 0.4.
For FSSSI, the amyloid nucleation score entry was “inactive”.
Under FSTQGTFVSVHGVADLAVCF stands “inactive”; under FSTRGSAMLRVAGLSGPRAS, 0.29 ± 0.43; under FSVLMEDHSRFIF, “inactive”.
The value for FSVRRLVDHFSNSMEDPHLP was -0.342 ± 1.
For FSVSSLVAVMNNTHLVVSGG, the amyloid nucleation score worked out at 2.34 ± 0.081.
The value for FSVTMDGYIRI was 0.06 ± 0.44.
Under FSYFVFLVKFVTVFTPTIHV stands -1.12 ± 0.3; under FSYMWAHTGSFPRRQVIITI, -0.596 ± 0.55.
